Test results published in US20130109619A1 (UNITED STATES OF AMERICA AS REPRESENTED BY THE SECRETARY …, published 2013).
Non-standard residues stand in square brackets, D forms with d. Fluo = fluorescein on the Cys side-chain sulfur; Nle = CCCC[C@H](N)C(=O)O

Target: recombinant Epstein Barr virus (EBV) IL10 (Epstein Barr virus, UniProt P03180 24-170)
Test: concentration-dependent changes in fluorescence intensity of the environment-sensitive fluorescein label on the peptide

Sequence of recombinant Epstein Barr virus (EBV) IL10 (P03180 24-170 limits assumed): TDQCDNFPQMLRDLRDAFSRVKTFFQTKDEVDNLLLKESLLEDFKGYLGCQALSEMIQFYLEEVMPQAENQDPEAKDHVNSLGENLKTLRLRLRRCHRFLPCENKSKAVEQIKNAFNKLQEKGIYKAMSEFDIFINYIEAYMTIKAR

B1: IL10-HF-6 (peptide)
peptide: Ac-C(Fluo)YKA[Nle]SEFDIFINYIEAY[Nle]T[Nle]KIRN-NH2
notes: also called fluorescent derivative of helix F of IL10; helix F analog
With B1 the Kd was 50 nM.
